Laboratory results taken from patent publication US20070004909A1 (MacroGenics, published 2007).

T1: soluble CD32B (sCD32B) (UniProt P31994 43-217, limits assumed)
T1 construct: extracellular domain; As immobilised on the BIAcore chip; also called FcγRIIB
T1 sequence (looked up): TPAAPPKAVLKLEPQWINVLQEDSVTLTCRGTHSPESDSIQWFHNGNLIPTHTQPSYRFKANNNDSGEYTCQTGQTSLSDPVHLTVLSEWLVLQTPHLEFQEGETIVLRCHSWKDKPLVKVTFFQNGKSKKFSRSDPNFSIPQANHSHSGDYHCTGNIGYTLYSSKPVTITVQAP

T2: soluble CD32A (sCD32A) (UniProt P12318 34-217, limits assumed)
T2 construct: extracellular domain; Negative control surface in SPR; also called control receptor
T2 sequence (looked up): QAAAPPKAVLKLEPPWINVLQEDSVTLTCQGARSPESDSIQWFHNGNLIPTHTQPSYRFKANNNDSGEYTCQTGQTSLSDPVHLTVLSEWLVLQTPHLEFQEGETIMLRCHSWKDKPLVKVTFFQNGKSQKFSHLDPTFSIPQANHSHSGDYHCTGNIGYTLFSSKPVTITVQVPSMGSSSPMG

T3: sCD32B-Ig (UniProt P31994 43-217)
T3 construct: extracellular domain; also called CD32B (ELISA coat); sCD32B (target protein of the sandwich ELISAs); not shown: Ig part of sCD32B-Ig is not described
T3 sequence (looked up): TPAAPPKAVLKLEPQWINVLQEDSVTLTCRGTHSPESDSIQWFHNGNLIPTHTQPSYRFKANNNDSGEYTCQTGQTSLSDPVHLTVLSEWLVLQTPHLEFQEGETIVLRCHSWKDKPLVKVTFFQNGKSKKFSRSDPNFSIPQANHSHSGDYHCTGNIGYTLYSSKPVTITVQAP


Columns and labels:
[1] = target: T4, soluble CD16A (sCD16A) (UniProt P08637 17-208, limits assumed); experiment: SPR (BIAcore 1000); receptor amine-coupled (~1000 RU), analyte 6.25-200 nM; units not printed (koff/kon implies nM)
T4 construct: extracellular domain; Amine-coupled to the chip in SPR; biotin- or HRP-conjugated as the probe in the sandwich ELISAs; also called FcγRIIIA; sCD16A-Biotin
Description: (§1) The binding of h2B6-h3G8 CBD, h2B6 CMD and h3G8 CMD to sCD16A, and sCD32B was assayed by SPR analysis. h3G8 scFv was also tested as a control. (A) Binding of to h3G8 CMD sCD16A; (B) Binding of h2B6-h3G8 CBD to sCD16A; (C) Binding of h3G8 scFv to sCD16A; (D) Binding of h2B6 CMD to sCD32B; and (E) Binding of h2B6-h3G8 CBD to sCD32B. Diabodies were injected at concentrations of 6.25-200 nM over receptor surfaces at a flow rate of […] for 180 sec.
(§2) SPR analysis was also used to estimate the kinetic and equilibrium constants of the CMDs and h2B6-h3G8 CBD to sCD16 and/or sCD32B. Results were compared to the same constants calculated for an h3G8 scFV. FIGS. 7A-E show the graphical results of the SPR analysis. The kinetic on and off rates, as well as the equilibrium constant, calculated from the results depicted in FIG. 7 are provided in Table 13.

[2] = target: T1, soluble CD32B (sCD32B); experiment: SPR (BIAcore), sCD32B immobilised, diabody injected for 60 s
Description: (§3) The binding of h2B6-h3G8 CBD, h2B6 CMD and h3G8 CMD to sCD16A, sCD32B, and sCD32A (negative control) was assayed by SPR analysis. h3G8 scFv was also tested as a control. (A) Binding to sCD16; (B) Binding to sCD32B and (C) Binding to sCD32A. Diabodies were injected at a concentration of 100 NM, and scFv at a concentration of 200 nM, over receptor surfaces at a flow rate of […] for 60 sec.

[3] = target: T2, soluble CD32A (sCD32A); experiment: SPR (BIAcore), sCD32A (negative control receptor) immobilised, diabody injected for 60 s
Description: as §3

[4] = target: T3, sCD32B-Ig; experiment: sandwich ELISA: sCD32B-Ig coated on the plate, diabody titrated, detected with labelled sCD16A; OD450
Description: The binding of h2B6-h3G8 CBD to sCD32B and sCD16A was assayed in a sandwich ELISA. sCD32B was used as the target protein. The secondary probe was HRP conjugated sCD16A. h3G8 CMD, which binds CD16A, was used as control.
ELISA: The binding of eluted and purified diabodies was characterized by ELISA assay, as described in 5.4.2. 50 ul/well of a 2 ug/ml solution of sCD32B-Ig was coated on 96-well Maxisorp plate in Carbonate buffer at 4° C. over night. The plate was washed three times with PBS-T (PBS, 0.1% Tween 20) and blocked by 0.5% BSA in PBS-T for 30 minutes at room temperature. Subsequently, h2B6-h3G8 CBD, h2B6 CMD, or h3G8 CMD were diluted into the blocking buffer in a serial of two-fold dilutions to generate a range of diabody concentrations, from 0.5 μg/ml to 0.001 μg/ml. The plate was then incubated at room temperature for 1 hour. After washing with PBS-T three times, 50 ul/well of 0.2 ug/ml sCD16A-Biotin was added to each well. The plate was again incubated at room temperature for 1 hour. After washing with PBS-T three times, 50 ul/well of a 1:5000 dilution of HRP conjugated streptavidin (Amersham Pharmacia Biotech) was used for detection. The HRP-streptavidin was allowed to incubate for 45 minutes at room temperature. […] The OD450 nm was read by using a 96-well plate reader and SOFTmax software, and results plotted using GraphPadPrism 3.03 software. […]

[5] = target: T4, soluble CD16A (sCD16A); experiment: sandwich ELISA: sCD32B coated on the plate (figure legend), purified diabody diluted 1:25 to 1:100, HRP-conjugated sCD16A as the probe; OD450
[6] = target: T4, soluble CD16A (sCD16A); experiment: SPR (BIAcore), sCD16 immobilised, diabody injected for 60 s
Description: as §3

[7] = target: T1, soluble CD32B (sCD32B); experiment: SPR (BIAcore 1000); receptor amine-coupled (~1000 RU), analyte 6.25-200 nM; units not printed (koff/kon implies nM)
Description: as §1, §2

T4 sequence (P08637 17-208 limits assumed): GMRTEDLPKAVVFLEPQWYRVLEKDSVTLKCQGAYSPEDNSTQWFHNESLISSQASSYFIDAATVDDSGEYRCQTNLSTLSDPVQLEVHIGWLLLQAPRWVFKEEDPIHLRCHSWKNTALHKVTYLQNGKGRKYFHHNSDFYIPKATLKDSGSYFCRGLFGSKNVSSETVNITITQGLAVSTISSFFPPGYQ

Binder	Kd [1] [nM]	binding result [2]	binding result [3]	binding result [4]	binding result [5]	binding result [6]	Kd [7] [nM]
h3G8 covalent monospecific diabody (CMD) (other, Covalent homodimer: disulfide between the C-terminal LGGC cysteines of the two identical chains., also called h3G8 CMD; h3G8 diabody) chain 1: DIVMTQSPDSLAVSLGERATINCKASQSVDFDGDSFMNWYQQKPGQPPKLLIYTTSNLESGVPDRFSGSGSGTDFTLTISSLQAEDVAVYYCQQSNEDPYTFGQGTKLEIKGGGSGGGGQVTLRESGPALVKPTQTLTLTCTFSGFSLSTSGMGVGWIRQPPGKALEWLAHIWWDDDKRYNPALKSRLTISKDTSKNQVVLTMTNMDPVDTATYYCAQINPAWFAYWGQGTLVTVSSLGGC chain 2: DIVMTQSPDSLAVSLGERATINCKASQSVDFDGDSFMNWYQQKPGQPPKLLIYTTSNLESGVPDRFSGSGSGTDFTLTISSLQAEDVAVYYCQQSNEDPYTFGQGTKLEIKGGGSGGGGQVTLRESGPALVKPTQTLTLTCTFSGFSLSTSGMGVGWIRQPPGKALEWLAHIWWDDDKRYNPALKSRLTISKDTSKNQVVLTMTNMDPVDTATYYCAQINPAWFAYWGQGTLVTVSSLGGC	18	no binding (tested: 100 nM)	no binding (tested: 100 nM)	no binding (tested: 0.5 ug/ml)	–	–	–
covalent bispecific diabody of constructs 15 and 16 (pMGX0752+pMGX0753) (bispecific antibody, Construct 15 = Hu2B6VL-Hu3G8VH-FNRGEC; construct 16 = Hu3G8VL-Hu2B6VH-VEPKSC; also called construct 15/16 combination) chain 1: EIVLTQSPDFQSVTPKEKVTFTCRTSQSIGTNIHWYQQKPDQSPKLLIKEVSESISGVPSRFSGSGSGTDFTLTINSLEAEDAATYYCQQSNTWPFTFGGGTKVEIKGGGSGGGGQVTLRESGPALVKPTQTLTLTCTFSGFSLSTSGMGVGWIRQPPGKALEWLAHIWWDDDKRYNPALKSRLTISKDTSKNQVVLTMTNMDPVDTATYYCAQINPAWFAYWGQGTLVTVSSFNRGEC chain 2: DIVMTQSPDSLAVSLGERATINCKASQSVDFDGDSFMNWYQQKPGQPPKLLIYTTSNLESGVPDRFSGSGSGTDFTLTISSLQAEDVAVYYCQQSNEDPYTFGQGTKLEIKGGGSGGGGQVQLVQSGAEVKKPGASVKVSCKASGYTFTNYWIHWVRQAPGQGLEWIGVIDPSDTYPNYNKKFKGRVTMTVVVSTSTAYMELRSLRSDDTAVYYCARNGDSDYYSGMDYWGQGTTVTVSSVEPKSC	–	–	–	–	binds	–	–
h2B6 covalent monospecific diabody (CMD) (other, Covalent homodimer: disulfide between the C-terminal LGGC cysteines of the two identical chains., also called h2B6 CMD; h2B6 diabody) chain 1: EIVLTQSPDFQSVTPKEKVTFTCRTSQSIGTNIHWYQQKPDQSPKLLIKEVSESISGVPSRFSGSGSGTDFTLTINSLEAEDAATYYCQQSNTWPFTFGGGTKVEIKGGGSGGGGQVQLVQSGAEVKKPGASVKVSCKASGYTFTNYWIHWVRQAPGQGLEWIGVIDPSDTYPNYNKKFKGRVTMTVVVSTSTAYMELRSLRSDDTAVYYCARNGDSDYYSGMDYWGQGTTVTVSSLGGC chain 2: EIVLTQSPDFQSVTPKEKVTFTCRTSQSIGTNIHWYQQKPDQSPKLLIKEVSESISGVPSRFSGSGSGTDFTLTINSLEAEDAATYYCQQSNTWPFTFGGGTKVEIKGGGSGGGGQVQLVQSGAEVKKPGASVKVSCKASGYTFTNYWIHWVRQAPGQGLEWIGVIDPSDTYPNYNKKFKGRVTMTVVVSTSTAYMELRSLRSDDTAVYYCARNGDSDYYSGMDYWGQGTTVTVSSLGGC	–	–	no binding (tested: 100 nM)	–	–	no binding (tested: 100 nM)	21
